Results as given in patent US10624964, “Methods and compositions for stimulating immune response using potent immunostimulatory RNA motifs” (The Trustees of the University of Pennsylvania).

Biological target: T1, RIG-I full length (UniProt O95786 O95786:1-925)
T1 sequence: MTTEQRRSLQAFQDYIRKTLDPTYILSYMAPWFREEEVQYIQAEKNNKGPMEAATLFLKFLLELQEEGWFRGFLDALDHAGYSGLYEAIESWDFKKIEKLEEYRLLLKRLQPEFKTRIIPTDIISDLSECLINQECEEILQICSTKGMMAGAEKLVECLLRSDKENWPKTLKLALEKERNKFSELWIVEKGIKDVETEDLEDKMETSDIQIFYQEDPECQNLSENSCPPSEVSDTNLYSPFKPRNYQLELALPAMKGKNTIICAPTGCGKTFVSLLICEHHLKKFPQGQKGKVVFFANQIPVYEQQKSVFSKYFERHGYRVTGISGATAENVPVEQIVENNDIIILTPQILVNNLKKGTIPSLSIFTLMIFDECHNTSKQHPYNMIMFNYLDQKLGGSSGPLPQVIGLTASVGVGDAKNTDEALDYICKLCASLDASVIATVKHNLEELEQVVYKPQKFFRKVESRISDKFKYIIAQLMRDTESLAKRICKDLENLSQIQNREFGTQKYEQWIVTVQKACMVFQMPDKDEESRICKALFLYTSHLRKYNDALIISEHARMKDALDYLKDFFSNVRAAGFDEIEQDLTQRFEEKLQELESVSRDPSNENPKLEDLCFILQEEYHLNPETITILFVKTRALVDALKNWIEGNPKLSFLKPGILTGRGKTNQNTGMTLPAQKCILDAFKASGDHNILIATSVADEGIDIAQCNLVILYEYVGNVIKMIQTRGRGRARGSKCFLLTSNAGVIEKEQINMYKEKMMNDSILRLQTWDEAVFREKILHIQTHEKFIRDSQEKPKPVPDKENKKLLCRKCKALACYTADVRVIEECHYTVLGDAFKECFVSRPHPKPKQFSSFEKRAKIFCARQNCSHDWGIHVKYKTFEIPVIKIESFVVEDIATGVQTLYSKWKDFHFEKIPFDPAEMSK
Assay: EMSA; with ATP; 6 pmol RNA, 0-20 pmol RIG-I; affinity equivalent to poly U/UC
Settings: stem-loop motif 70-114, complementary 5' and 3' ends

B1: DVG-268 ivtRNA (ssRNA)
RNA: ACCAGACAAGAGUUUAAGAGAUAUGUAUCCUUUUAAAUUUUCUUGUCUUCUUGUAAGUUUUUCUUGCUAUUGUCAUAUGGAUAAGUCCAAGACUAUCUUUAUCUAUGUCCACAAGAUUGGUAACUGGGUCAUUCCCUGACCAGAAGUUUGAAGCAAGACUUCCCGGUACCUGGAAGUCUUGGACUUAUCCAUAUGACAAUAGUAAGAAAAACUUACAAGAAGACAAGAAAAUUUAAUAGGAUACAUAUCUCUUAAACUCUUGUCUGGU
modifications: 5'-triphosphate (T7 transcript)
binding result: binds
